B1: Class B E-box probe (USF site, adenovirus major late promoter) (dsDNA)
DNA 1: GATCGGTGTAGGCCACGTGACCGGGTGT
DNA 2: GATCACACCCGGTCACGTGGCCTACACC
B2: Class C probe (AS-C T5 promoter) (dsDNA)
DNA 1: GATCGGCAGCCGGCACGCGACAGGGCC
DNA 2: GATCGGCCCTGTCGCGTGCCGGCTGCC
B3: Class A E-box probe (AS-C T5 promoter) (dsDNA)
DNA 1: GATCGTAGTCACGCAGGTGGGATCCCTA
DNA 2: GATCTAGGGATCCCACCTGCGTGACTAC

Tests used:
[1] = target: T1, CR8 bHLH domain (BHLHE40/DEC1) (human, UniProt O14503 SEQ:52-107); test: EMSA; 20 mM Hepes pH 7.6, 50 mM KCl, 10 mM DTT, poly(dI-dC), room temperature; self-competition partial at 50-fold and complete at 500-fold excess; conditions: tags: N-terminal His tag (pRSET-A, Xpress System), 16.6 kD with tag; chain copies: 2 (homodimer, stated); label: 32P 5' end; 5' GATC overhangs
T1 chain: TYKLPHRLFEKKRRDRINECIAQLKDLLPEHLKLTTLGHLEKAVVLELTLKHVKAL
Procedure: One strand of the oligonucleotide was labeled with [g-32P]ATP by T4 polynucleotide kinase, hybridized with three times excess of the opposite strand, and purified using MERmaid oligonucleotide purification kit (BIO 101). 150 ng of the protein was allowed to bind to 50,000 cpm (equivalent to 0.5 ng in a typical experiment) of the labeled probe for 15 min at room temperature in 20 mM Hepes, pH 7.6, 50 mM KCl, 10 mM DTT, 5% glycerol, 0.5 mM EDTA and 0.3 mg/ml BSA. Two microgram of poly (dI-dC) was added to each […] reaction as on-specific DNA. Samples were analyzed on a 5% native polyacrylamide gel and visualized by autoradiography.
To examine the relative binding affinity, a large excess of non-labeled oligonucleotide was added to the reaction as competitor. […] 0.5 ng of the radiolabeled Class B probe was incubated with CR8 bHLH in the absence (lane 1) or the presence (lanes 2 to 7) of either 25 ng (50-fold excess; lanes 2, 4 and 6) and 250 ng (500-fold excess; lanes 3, 5 and 7) of unlabeled competitors. […] Thus, since all these experiments were done in the absence of other HLH proteins, it appears that CR8 bHLH bound to the Class B sequence as a homodimer with the highest affinity.

[2] = target: T1, CR8 bHLH domain (BHLHE40/DEC1); test: EMSA; same buffer; conditions: tags: N-terminal His tag (pRSET-A, Xpress System), 16.6 kD with tag; chain copies: 2 (homodimer, stated); label: 32P 5' end; 5' GATC overhangs
Source text: (§1) The oligonucleotide probes used for the electrophoretic mobility shift assay (EMSA) are as follows: the Class A site used was the CACCTG hexamer (CAGGTG for the opposite strand) from the T5 promoter region of the Drosophila AS-C (Villares, R. et al. (1987) *Cell* 550:415–424) (5'-[…]-3' (SEQ ID NO:17) and 5'-[…]-3' (SEQ ID NO:18) for the opposite strand), the Class B site was the CACGTG hexamer from the USF binding site in the adenovirus major late promoter (Gregor, P. D. et al. (1990) *Genes & Dev.* 4:1730–1740) (5'-[…]-3' (SEQ ID NO:19) and 5'-[…]-3') (SEQ ID NO:20), the Class C site was the CACGCG hexamer (CGCGTG for the opposite strand) from the AS-C T5 promoter (5'-[…]-3' (SEQ ID NO:21) and 5'-[…]-3') (SEQ ID NO:22), and the N-box (CACNAG) was the double hexamer sequence from the Enhancer of split [E(spl)] m8 promoter (Klimbt, C. et al. (1989) *EMBO J.* 8:203–210) (5'-[…]-3' (SEQ ID NO:23) and 5'-[…]-3' (SEQ ID NO:24). One strand of the oligonucleotide was labeled with [g-32P]ATP by T4 polynucleotide kinase, hybridized with three times excess of the opposite strand, and purified using MERmaid oligonucleotide purification kit (BIO 101). […] Samples were analyzed on a 5% native polyacrylamide gel and visualized by autoradiography.

[3] = target: T2, daughterless (da) bHLH domain (Drosophila melanogaster, UniProt P11420 P11420:554-607); test: EMSA; positive control; conditions: tags: supplied by Dr. Michael Caudy, Cornell University Medical College; label: 32P 5' end; 5' GATC overhangs
T2 sequence: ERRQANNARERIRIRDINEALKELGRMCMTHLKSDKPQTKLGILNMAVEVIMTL
Source text: as §1

Binder	binding result [1]	binding result [2]	binding result [3]
B1	binds	–	–
B2	–	binds	–
B3	–	no binding	binds

Reference: patent US5871960, “Nucleic acids encoding CR5 polypeptide, vector and transformed cell thereof, and expression thereof” (Trustees of Dartmouth College)
